Measured values taken from PMC2901514 (The Febs Journal, 2010).

Biological target: the molecule itself
Experiment: SEC

B1: CMP-Neu5Ac synthetase (CNS) from Neisseria meningitidis, K142A mutant (enzyme)
chain: MEKQNIAVILARQNSKGLPLKNLRKMNGISLLGHTINAAISSKCFDRIIVSTDGGLIAEEAKNFGVEVVLRPAELASDTASSISGVIHALETIGSNSGTVTLLQPTSPLRTGAHIREAFSLFDEKIKGSVVSACPMEHHPLATLLQINNGEYAPMRHLSDLEQPRQQLPQAFRPNGAIYINDTASLIANNCFFIAPTKLYIMSHQDSIDIDTELDLQQAENILNHKES
  stoichiometry N: 2
